Assay results taken from US20110124556 (published 2011).
Positions of bridges follow the written chain, without caps; N, C: chain ends. Non-standard residues stand in square brackets, D forms with d. Chains are numbered I, II in the order given. No end group written: not given here. Tyr(3-I) = N[C@@H](Cc1ccc(O)c(I)c1)C(=O)O; Hyp = O=C(O)[C@@H]1C[C@@H](O)CN1; Tic = O=C(O)[C@@H]1Cc2ccccc2CN1; Ac6c = NC1(C(=O)O)CCCCC1; βturn = not defined here

B1: S581 (peptide)
chain 1: SLEEEWAQIESEVWGR-βturn
chain 2: ESFYDWFERQLG
modifications: not fully specified; printed as SLEEEWAQIESEVWGR-βturn-ESFYDWFERQLG; ends and bridges not checked
B2: S256 (peptide)
chain: [Ac6c]CLEE[dW]GASL[Tic]QCSG
modifications: not fully specified (bridges); printed as Acy-CLEEwGASL-Tic-QCSG; cysteine pairing not given here
B3: S588 (peptide)
chain 1: LEEEWAQVECEV
chain 2: [Tyr(3-I)]GRGCSGSLDESFYDWFERQLG
modifications: ends and bridges not checked
B4: S432 (peptide)
chain 1: ESFYDWFERQLGGGGK
chain 2: CEVYGRGCPS
B5: S444 (peptide)
chain 1: ESFYDWFERQLGGGGK
chain 2: VQCEVYGRGCPS
B6: S423 (peptide)
chain 1: ESFYDWFERQLGK
chain 2: ACAWPTYWNCG
modifications: ends and bridges not checked; also: two chains joined C-terminus to C-terminus, the link is not given here
B7: S441 (peptide)
chain 1: ESFYDWFERQLGGGGK
chain 2: WAWVQCEVYGRGCPS
B8: S170 (peptide)
chain 1: CGFHENFYDWFVRQVSKK
chain 2: CGFHENFYDWFVRQVSKK
modifications: disulfide I:1-II:1; not fully specified; ends not checked
B9: S591 (protein)
chain 1: LEEEWAQIECEVWGRGCSGSLDESF
chain 2: LEEEWAQIECEVWGRGCSGSLDESF
B10: S378 (peptide)
chain 1: GSLDESFYDWFERQLGKKKX
chain 2: GSLDESFYDWFERQLGKKKX
modifications: listing feature
B11: S359 (peptide)
chain 1: XDWLQRNANFYDWFVAEL
chain 2: XDWLQRNANFYDWFVAEL
modifications: listing feature
B12: S437 (peptide)
chain 1: ESFYDWFERQLGGGGK
chain 2: LDQEWAWVQCEVYGRGCPS
B13: S433 (peptide)
chain 1: ESFYDWFERQLGGGGK
chain 2: WLDQEWAWVQ
B14: S454 (peptide)
chain 1: GSLDESFYDWFERQLGKKKX
chain 2: EWLDQEWAWVQCEVYGRGCPSEEKX
modifications: not fully specified; listing feature

target: human insulin receptor (HIR) (human, UniProt P06213); assay: competition

Binder	Kd [nM]
[dF][dH][dE][dN][dF][dY][dD][dW][dF][dV][dR][dQ][dV][dS][dK][dK] [S114]	83000
SLEEEWAQIECEVWGRGCPSESFYDWFERQL [S558]	0.019
Ac-SIEEEWAQIKCDVWGRGSESFYDWFERQL (ends and bridges not checked) [S600]	0.0076
SLEEEWAQIQCEVWGRGCPSESFYDWFERQL (not fully specified (N-terminus); ends and bridges not checked) [S606]	0.004
SLEEEWAQVECEVYGRGCPPGLLDESFYHWFDRQLR [S553]	0.0073
B1	0.012
B2	90000
B3	0.18
CGFHENFYDWFVRQVSKK (not fully specified; ends and bridges not checked) [S171]	29000
SIEEEWAQIKCDVWGRGCSESFYDWFERQL [S556]	0.032
B4	180
SLEEEWAQVECEVYGRGCPSESFYDWFVRQLG [S555]	0.057
B5	190
QAPSNFYDWFVREWDEE [S287]	59
AFYDWFAK [S180]	> 2000
B6	62
WGRSFYRYFETLLAQGI [S261]	> 20000
SLEEEWAQIECEVWGRCWHHSFYDWFERQL [S594]	0.071
SLEEEWAQIQHELWPVEKGESFYDWFERQL (not fully specified (N-terminus); ends and bridges not checked) [S605]	0.094
SLNFYDALQLLAKK [S119]	18

Binder	Kd [nM]
DWLQRNANFYDWFVAELX (listing feature) [S294]	130
SLEEEWAQIECEVWGRGCPKGFYGWFRRRG [S582]	2.5
AAAAFYDWFAAAAAKK [S168]	38
NANFYDWFVAELG [S241]	16000
LDRQFYRYFQDLLVGFM [S260]	2300
SLEEEWAQIEEVWGRSESFYDWFERQLG [S572]	4.8
LDQEWAQVQCEVYGRGCPSESFYDWFERQL [S533]	0.067
SSNFYQALMLLS [S129]	2900
SLEEEWAQIECEVWGRGCPKGFYGWFRRRRG [S584]	9.3
WLDQEWAWVQCEVYGRGCPSGGSGGSGRVDWLQRNANFYDWFVAELG [S511]	3.8
B7	120
SLEEEWAQVEAEVYGRGAPSGSLDESFYDWFERQLG [S551]	0.072
B8	700
SLEEEWAQVECEVYGRGCPS [S547]	49
WPGYAWLS [S317]	> 20000
GSLDESFYDWFERQLGGGSGGSWLDEEWAQVQCEVYGRGCPS [S543]	0.019
B9	0.13
RD[Hyp]FYDWFDD[dI] [S268]	450
SLEEEWAQIQAEVYGNPNSESFYDWFERQL [S602]	0.031
FHENAYDWFVRQVSKK [S219]	> 2000

Binder	Kd [nM]
FHENFYDAFVRQVSKK [S222]	> 20
SLEEEWAQIECEVWGRGCSESFYDWFERQL [S559]	0.021
B10	65
DWLQRNANFYDWFVAELG [S236]	100
SLEEEWAQIESEVWGRSESFYDWFERQLG [S573]	0.036
SIEEEWAQIKCDVWGRGCPPGLLDESFYHWFDRQLR [S520]	0.02
B11	700
B12	0.69
Ac-SIEEEWAQIKCDVWGRGPSESFYDWFERQLG (ends and bridges not checked) [S568]	0.0043
LEEEWAQVECEVYGRGCPSESFYDWFERQL [S536]	0.083
RWPNFYGYFESLLTHFS [S257]	14000
FHENFYDWFVAQVSKK [S108]	750
B13	110
LDQEWAWVQCEAYGRGCPSESFYDWFERQL [S503]	2.1
SLEEEWAQIECEVWGRGCPSY [S592]	17
GSLDESFYDWFERQLGKKKS [S373]	120
B14	0.38
DPFYQGLWEWLRESGEE [S289]	> 2000
